Test results from patent publication US8252554B2, “Halohydrin dehalogenases and related polynucleotides” (Codexis, Inc., priority 2003, dated 2012).

experiment: Example 5A gas chromatography assay of HHDH activity (conversion of ECHB to ethyl (R)-4-cyano-3-hydroxybutyrate); assay type: biochemical; settings: ECHB substrate; Activity of Improved HHDH Enzyme/Activity of Agrobacterium sp. HHDH (SEQ ID NO: 2)
Description: To a solution of ethyl (S)-4-chloro-3-hydroxybutyrate (10 mM-100 mM) in 500 mM HCN (500 mM NaCN adjusted to pH 7.0 with phosphoric acid) was added the halohydrin dehalogenase enzyme as a predissolved solution in the same buffer. Over time, aliquots of the mixture were withdrawn and extracted with three volumes of ethyl acetate. The organic layer was then analysed for ethyl (R)-4-cyano-3-hydroxybutyrate by gas chromatography (GC), as described hereinbelow in Example 6. Samples were taken at various time points, and the peak area of the product cyanohydrin, ethyl (R)-4-cyano-3-hydroxybutyrate, was plotted as a function of time. Time points are selected at low conversion, for example, less than 5% conversion, to avoid the effect of product inhibition (e.g., 0.5%, 1.0%, 1.5%, 2.0%, 2.5%, 3.0%, etc.). The peak areas were converted to concentration units using a standard curve that was prepared for the ethyl (R)-4-cyano-3-hydroxybutyrate. Activity of the halohydrin dehalogenase was determined in units of μmol (cyanohydrin produced)/min/mg (total halohydrin dehalogenase catalyst). Relative activities of some of the clones are shown in Table 2, computed as Activity of Improved HHDH Enzyme/Activity of Agrobacterium sp. HHDH (SEQ ID NO: 2).
The ethyl (R)-4-cyano-3-hydroxybutyrate produced in Example 5A was analyzed using gas chromatography with flame ionization (FID) detection using an Agilent® HP-5™ column, 30 m long, 0.32 mm inner diameter, film 0.25 μm, using the following program: 1 minute at 100° C., 5° C./minute for 10 minutes; 25° C./minute for 2 minutes; then 2 minutes at 200° C. Inlet and outlet temperatures were both 300° C., and the flow rate was 2 ml/minute. Under these conditions, ethyl (R)-4-cyano-3-hydroxybutyrate elutes at 6.25 minutes and ethyl (S)-4-chloro-3-hydroxybutyrate elutes at 4.5 minutes. Chemical purity of the species was measured using the integrated peak areas from the gas chromatography results.

Row | Molecule | Fold Improvement in HHDH Activity over Aerobacterium sp. HHDH (SEQ ID NO: 2) [Fold]
1 | SEQ ID NO: 18: improved HHDH (halohydrin dehalogenase) polypeptide of the Sequence Listing (protein) MSTAIVTNVKHFGGMGSALRLSEAGHTVACHDESFKQKDELEAFAETYPQLKPMSEQEPAELIEAVTSAYGQVDVLVSNDIFAPEFQPIDKYAVEDYRGAVEALQIRPFALVNAVASQMKKRKSGHIIFITSATPFGPWKELSTYTSARAGACTLANALSKELGEYNIPVFAIGPNYLHSEDSPYFYPTEPWKTNPEHVAHVKKVTALQRLGTQKELGELVAFLASGSCDYLTGQGFFLAGGFPMIERWPGM | 2.7
2 | SEQ ID NO: 28: improved HHDH (halohydrin dehalogenase) polypeptide of the Sequence Listing (protein) MSPAIVTNVKHFGGMGSALRLSEAGHTVACHDESFKQKDELEAFAETYPQLKPMSEQEPAELIEAVTSAYGQVDVLVSNDIFAPEFQPIDKYAVEDYRGAVEALQIRPFALVNAVASQMKKRKSGHIIFITSATPFGPWKELSTYTSARAGACTLANALSKELGEYNIPVFAIGPNYLHSEDSPYFYPTEPWKTNPEHVAHVKKVTALQRLGTQKELGELVAFLASGSCDYLTGQVFWLAGGFPMIERWPGM | 2.2
3 | SEQ ID NO: 16: improved HHDH (halohydrin dehalogenase) polypeptide of the Sequence Listing (protein) MSTAIVTNVKHFGGMGSALRLSEAGHTVACHDESFKQKDELEAFAETYPQLKPMSEQEPAELIEAVTSAYGQVDVLVSNDIFAPEFQPIDKYAVEDYRGAVEALQIRPFALVNAVASQMKKRKSGHIIFITSATPLGPWKELSTYTSARAGACTLANALSKELGEYNIPVFAIGPNYLHSEDSPYFYPTEPWKTNPEHVAHVKKVTALQRLGTQKELGELVAFLASGSCDYLTGQVFWLAGGFPMIERWPGMPE | 2.0
4 | SEQ ID NO: 22: improved HHDH (halohydrin dehalogenase) polypeptide of the Sequence Listing (protein) MSTAIVTNVKHFGGMGSALRLSEAGHTVACHDESFNQKDELEAFAETYPQLKPMSEQEPAELIEAVTSAYGQVDVLVSNDIFAPEFQPIDKYAVEDYRGAVEALQIRPFALVNAVASQMKKRKSGHIIFITSATPFGPWKELSTYTSARAGACTLANALSKELGEYNIPVFAIGPNYLHSEDSPYFYPTEPWKTNPEHVAHVKKVTALQRLGTQKELGELVAFLASGSCDYLTGQVFWLAGGFPMIERWPGVPE | 2.5
5 | SEQ ID NO: 34: improved HHDH (halohydrin dehalogenase) polypeptide of the Sequence Listing (protein) MSPAIVTNVKHFGGMGTALRLSEAGQTVACHDESFKQKDELEAFAETYPQLKPMSEQEPAELIEAVTSAYGQVDVLVSNDIFAPEFQPIDKYAVEDYRGAVEALQIRPFALVNAVASQMKKRKSGHIIFITSATPFGPWKELSTYTSARAGACTLANALSKELGEYNIPVFAIGPNYLHSEDSPYFYPTEPWKTNPEHVAHVKKVTALQRLGTQKELGELVAFLASGSCDYLTGQVFWLAGGFPMIERWPGMPE | 2.4
6 | SEQ ID NO: 24: improved HHDH (halohydrin dehalogenase) polypeptide of the Sequence Listing (protein) MSTAIVTNVKHFGGMGSALRLSEAGHTVACHDESFKQKDELEAFAETYPQLKPMSEQEPAELIEAVTSAYGQVDVLVSNDIFAPEFQPIDKYAVEDYRGAVEALQIRPFALVNAVASQMKKRKSGHIIFITSATPFGPWKELSTYTSARAGACTLANALSKELGEYNIPVFAIGPNYLHSEDSPYFYPTEPWKTNPEHMAHVKKVTALQRLGTQKELGELVAFLASGSCDYLTGQVFWLAGGFPMIERWPGMPE | 3.2
7 | SEQ ID NO: 26: improved HHDH (halohydrin dehalogenase) polypeptide of the Sequence Listing (protein) MSTAIVTNVKHFGGMGSALRLSEAGHTVACHDESFKQKDELEAFAETYPQLKPMSEQEPAELIEAVTSAYGQVDVLVSNDIFAPEFQPIDKYAVEDYRGAVEALQIRPFALVNAVASQMKKRKSGHIIFITSATPLGPWKELSTYTSARAGACTLANALSKELGEYNIPVFAIGPNYLHSEDSPYFYPTEPWKTNPEHVAHVKKVTALQRLGTQKELGELVAFLASGSCDYLTGQVFWLAGGFPMIERWPGMPE | 1.7
8 | SEQ ID NO: 14: improved HHDH (halohydrin dehalogenase) polypeptide of the Sequence Listing (protein) MSTAIDTNVKHFGSKGTALRLSEAGHTVACHDESFKQKDDLEAFAETYPQLKPMSEQEPAELIEAVTSAYGQVDVLVSNDIFAPEFQPIDKYAVEDYRGAVEALQIRPFALVNAVASQMKKRKSGHIIFITSSTPFGPWKELSTYTSARAGACTLANALSKELGEYNIPVFAIGPNYLHSEDSPYFYPTEPWKTNPEHVAHVKKVTALQRLGTQKELGELVAFLASGSCDYLTGQVFWLAGGFPMIERWPGMPE | 1.4
9 | SEQ ID NO: 12: improved HHDH (halohydrin dehalogenase) polypeptide of the Sequence Listing (protein) MSPAIVTNIKHFSGMCRALRLSEAGHTVACHDESFKQKDELEAFAETYPQLKPMSEQEPAELIEAVTSAYGQVDVLVSNDIFAPEFQPIDKYAVEDYRGAVEALQIRPFALVNAVASQMKKRKSGHIIFITSATPFGPWKELSTYTSARAGACTLANALSKELGEYNIPVFAIGPNYLHSEDSPYFYPTEPWKTNPEHVAHVKKVTALQRLGTQKELGELVAFLASGSCDYLTGQVFWLAGGFPMIERWPGMPE | 2.5
10 | SEQ ID NO: 10: improved HHDH (halohydrin dehalogenase) polypeptide of the Sequence Listing (protein) MTAAIVTNVKHFGGMGSALRLSEAGHTVTCHDERLKQKDELEAFAETYPQLNPMSEQEPAELIEAVTSAYGQVDVLVSNDIFAPEFQPIDKYAVEDYRGAVEALQIRPFALVNAVASQMKKRKSGHIIFITSATPFGPWKELSTYTSARAGACTLANALSKELGEYNIPVFAIGPNYLHSEDSPYFYPTEPWKTNPEHVAHVKKVTALQRLGTQKELGELVAFLASGSCDYLTGQVFWLAGGFPMIERWPGMPE | 1.7
11 | SEQ ID NO: 20: improved HHDH (halohydrin dehalogenase) polypeptide of the Sequence Listing (protein) MSPAIVTNVKHFGGMGSALRLSEAGHTVACHDESFKQKDELEAFAETYPQLKPMSEQEPAELIEAVTSAYGQVDVLVSNDIFAPEFQPIDKYAVEDYRGAVEALQIRPFALVNAVASQMKKRKSGHIIFITSATPFGPWKELSTYTSARAGACTLANALSKELGEYNIPVFAIGPNYLHSEDSPYFYPTEPWKTNPEHVAHVKKVTALQRLGTQKELGELVAFLASGSCDYLTGQVFWLAGGFPMIERWPGMPE | 3.8

same assay, conditions: assay described in Example 5A

Row | Molecule | HHDH activity greater than the HHDH activity of Agrobacterium sp. (wild-type) HHDH (SEQ ID NO: 2)
12 | W139R/N176E: intermediate active HHDH variant with W139 and N176 mutated into an apparent salt bridge (with reference to SEQ ID NO: 2) (protein) MSTAIVTNVKHFGGMGSALRLSEAGHTVACHDESFKQKDELEAFAETYPQLKPMSEQEPAELIEAVTSAYGQVDVLVSNDIFAPEFQPIDKYAVEDYRGAVEALQIRPFALVNAVASQMKKRKSGHIIFITSATPFGPRKELSTYTSARAGACTLANALSKELGEYNIPVFAIGPEYLHSEDSPYFYPTEPWKTNPEHVAHVKKVTALQRLGTQKELGELVAFLASGSCDYLTGQVFWLAGGFPMIERWPGMPE | greater HHDH activity relative to wildtype HHDH
13 | W139D/N176R: intermediate active HHDH variant with W139 and N176 mutated into an apparent salt bridge (with reference to SEQ ID NO: 2) (protein) MSTAIVTNVKHFGGMGSALRLSEAGHTVACHDESFKQKDELEAFAETYPQLKPMSEQEPAELIEAVTSAYGQVDVLVSNDIFAPEFQPIDKYAVEDYRGAVEALQIRPFALVNAVASQMKKRKSGHIIFITSATPFGPDKELSTYTSARAGACTLANALSKELGEYNIPVFAIGPRYLHSEDSPYFYPTEPWKTNPEHVAHVKKVTALQRLGTQKELGELVAFLASGSCDYLTGQVFWLAGGFPMIERWPGMPE | greater HHDH activity relative to wildtype HHDH
